Values quoted from earlier work as cited in paper PMC7432558.

Molecular target: TEAD1 (Homo sapiens) (UniProt P28347)
UniProt P28347, sequence (P28347 whole entry): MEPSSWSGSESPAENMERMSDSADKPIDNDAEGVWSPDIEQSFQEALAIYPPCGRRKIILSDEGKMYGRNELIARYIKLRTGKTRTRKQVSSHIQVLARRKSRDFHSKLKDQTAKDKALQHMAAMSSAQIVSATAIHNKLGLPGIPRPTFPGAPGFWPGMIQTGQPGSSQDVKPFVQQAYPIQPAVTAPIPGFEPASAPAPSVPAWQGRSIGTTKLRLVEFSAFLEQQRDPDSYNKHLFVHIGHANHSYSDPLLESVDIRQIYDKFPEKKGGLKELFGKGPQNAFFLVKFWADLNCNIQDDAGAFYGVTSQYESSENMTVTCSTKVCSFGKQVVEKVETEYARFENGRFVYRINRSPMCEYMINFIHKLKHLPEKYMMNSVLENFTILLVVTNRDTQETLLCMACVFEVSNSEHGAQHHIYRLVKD

For “YAP-derived cyclic peptide 81-100 (from UniProt P46937)”, the Kd is listed as 15 nM.
